Data taken from PMC9402538, “Rational design of a sensitivity-enhanced tracer for discovering efficient APC–Asef inhibitors” (Nature Communications, 2022).
Positions count from the first letter of the chain named. In names and notes the source's numbering stands. Primed or numbered codes have the meaning given here. [ ]: non-standard residue; d: D form. The star is where a group is joined. FITC = O=C1OC2(c3ccc(O)cc3Oc3cc(O)ccc32)c2ccc(NC(=S)*)cc21; Phe(4-tBu) = CC(C)(C)c1ccc(C[C@H](N)C(=O)O)cc1; Bpa = N[C@@H](Cc1ccc(C(=O)c2ccccc2)cc1)C(=O)O; Ala(cPent) = N[C@@H](CC1CCCC1)C(=O)O; FITC′ = fluorescein isothiocyanate; hLeu = CC(C)CC[C@H](N)C(=O)O; 2Furoyl = O=C(c1ccco1)*; Cbz = O=C(OCc1ccccc1)*; Bz = O=C(c1ccccc1)*

T1: APC (303-739) (UniProt P25054 303-739)
T1 construct: adenomatous polyposis coli (APC), residues 303-739; pET28a construct; also called APC WT; adenomatous polyposis coli; source: E. coli BL21 (DE3), purified (Ni-NTA)
T1 sequence (looked up): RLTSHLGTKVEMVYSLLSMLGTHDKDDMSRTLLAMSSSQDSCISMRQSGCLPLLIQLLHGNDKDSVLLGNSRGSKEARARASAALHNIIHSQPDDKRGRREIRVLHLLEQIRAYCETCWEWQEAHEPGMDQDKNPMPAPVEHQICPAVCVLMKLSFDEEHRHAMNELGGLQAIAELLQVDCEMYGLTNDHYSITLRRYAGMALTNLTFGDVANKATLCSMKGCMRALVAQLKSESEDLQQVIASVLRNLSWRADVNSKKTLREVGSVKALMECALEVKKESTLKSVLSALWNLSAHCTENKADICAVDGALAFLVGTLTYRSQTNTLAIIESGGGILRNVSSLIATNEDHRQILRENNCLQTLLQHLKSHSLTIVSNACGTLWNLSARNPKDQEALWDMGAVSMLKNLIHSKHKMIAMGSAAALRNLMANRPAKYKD

T2: APC (303–739) (UniProt P25054 303-739)
T2 construct: adenomatous polyposis coli (APC), residues 303–739; The methods name this construct for FP and SPR; the ITC methods say only 'APC protein'; Plasmid was a gift (Dr. Geng Wu); pET28a; also called APC WT; adenomatous polyposis coli; source: E. coli BL21 (DE3), purified (Ni-NTA)
T2 sequence (looked up): T1 sequence (looked up)

B1: MAI-457 (peptide)
chain: Bz-AGESLY[Bpa]-NH2
SMILES: CC(C)C[C@H](NC(=O)[C@H](CO)NC(=O)[C@H](CCC(=O)O)NC(=O)CNC(=O)[C@H](C)NC(=O)c1ccccc1)C(=O)N[C@@H](Cc1ccc(O)cc1)C(=O)N[C@@H](Cc1ccc(C(=O)c2ccccc2)cc1)C(N)=O
B2: MAI-461 (peptide)
chain: Bz-AGES[Ala(cPent)]YE-NH2
SMILES: C[C@H](NC(=O)c1ccccc1)C(=O)NCC(=O)N[C@@H](CCC(=O)O)C(=O)N[C@@H](CO)C(=O)N[C@@H](CC1CCCC1)C(=O)N[C@@H](Cc1ccc(O)cc1)C(=O)N[C@@H](CCC(=O)O)C(N)=O
B3: MAI-466 (peptide)
chain: 2Furoyl-AGESLY[Phe(4-tBu)]-NH2
SMILES: CC(C)C[C@H](NC(=O)[C@H](CO)NC(=O)[C@H](CCC(=O)O)NC(=O)CNC(=O)[C@H](C)NC(=O)c1ccco1)C(=O)N[C@@H](Cc1ccc(O)cc1)C(=O)N[C@@H](Cc1ccc(C(C)(C)C)cc1)C(N)=O
B4: APC W593A, N641A (domain or fragment)
chain: T1 sequence (looked up) with W291A, N339A
B5: tracer 8 (peptide)
peptide: Cbz-AGESLYENELISK(FITC′)-NH2
notes: source: synthetic peptide (general procedure B; FITC-labeled tracer peptides obtained from Changzhou Kanglong Biotech)
B6: tracer 12 (peptide)
peptide: Cbz-AGESLYEGGGGGK(FITC′)-NH2
notes: as for B5
B7: tracer 9 (peptide)
peptide: Cbz-AGESLYENELK(FITC′)-NH2
notes: as for B5
B8: tracer 10 (peptide)
peptide: Cbz-AGESLYENK(FITC′)-NH2
notes: as for B5
B9: tracer 14 (peptide)
peptide: Cbz-AGESLYEGK(FITC′)-NH2
notes: as for B5
B10: tracer 11 (peptide)
peptide: Cbz-AGESLYEGGGGGGGK(FITC′)-NH2
notes: as for B5
B11: tracer 13 (peptide)
peptide: Cbz-AGESLYEGGGK(FITC′)-NH2
notes: as for B5
B12: tracer 7 (peptide)
peptide: Cbz-AGESLYEK(FITC)-NH2
notes: designed from the Asef hot spot 181-187; the systematic name on D1:p12 gives (R) at the lysine carbon; source: synthetic peptide (general procedure B; FITC-labeled tracer peptides obtained from Changzhou Kanglong Biotech)
B13: tracer 7 (Z–AGESLYEK[FITC]–NH2) (peptide)
peptide: Cbz-AGESLYEK(FITC)-NH2
notes: tracer 6 with a shortened linker; source: synthetic peptide, bought: Changzhou Kanglong Biotech Ltd
B14: tracer 1 (Ac–GGGGEQLAINELISDGK[FITC]–NH2) (peptide)
peptide: Ac-GGGGEQLAINELISDGK(FITC)-NH2
notes: stretch of Asef (Rho guanine nucleotide exchange factor 4); lysine that carries FITC; source: synthetic peptide, bought: Changzhou Kanglong Biotech Ltd
B15: tracer 6 (Z–AGESLYENELISDGK[FITC]–NH2) (peptide)
peptide: Cbz-AGESLYENELISDGK(FITC′)-NH2
notes: tracer 3 with its first two residues GG replaced by a benzyloxycarbonyl (Z) group; source: synthetic peptide, bought: Changzhou Kanglong Biotech Ltd
B16: tracer 3 (Ac–GGAGESLYENELISDGK[FITC]–NH2) (peptide)
peptide: Ac-GGAGESLYENELISDGK(FITC′)-NH2
notes: designed from tracer 1 (Asef stretch) by changing residues of the hot spot GGEQLAI; source: synthetic peptide, bought: Changzhou Kanglong Biotech Ltd
B17: tracer 5 (Ac–EGAGESLYENELISDGK[FITC]–NH2) (peptide)
peptide: Ac-EGAGESLYENELISDGK(FITC′)-NH2
notes: tracer 3 with its first residue replaced; source: synthetic peptide, bought: Changzhou Kanglong Biotech Ltd
B18: tracer 4 (Ac–YGAGESLYENELISDGK[FITC]–NH2) (peptide)
peptide: Ac-YGAGESLYENELISDGK(FITC′)-NH2
notes: as for B17
B19: tracer 2 (Ac–GGAGEALAINELISDGK[FITC]–NH2) (peptide)
peptide: Ac-GGAGEALAINELISDGK(FITC′)-NH2
notes: as for B16

Target: T1, APC (303-739)
Test: fluorescence polarisation; competition with tracer 7: 25 nM APC (303-739), serial dilution of peptide, 20 nM tracer 7; 50 mM HEPES pH 7.5, 300 mM NaCl, 1 mM EDTA, 1 mM DTT; room temperature
Settings: both partners purified

Point of comparison: Bz-AGESLY[dE]-NH2 [MAI-465], IC50 1000 ± 30 nM. Against it:
- {2‑(methylthio)pyrimidine‑4‑carbonyl}-AGESLYE-NH2 [MAI-456] — within error, 990 ± 60 nM
- B1 — 11-fold lower, 92 ± 3 nM
- {benzofuran‑2‑carbonyl}-AGESLYE-NH2 [MAI-453] — 3.8-fold lower, 260 ± 10 nM
- {pyrimidine‑4‑carbonyl}-AGESLYE-NH2 [MAI-464] — 4.5-fold lower, 220 ± 10 nM
- Cbz-AGES[hLeu]YE-NH2 [MAI-426] — within 1.5-fold, 1200 ± 60 nM
- {oxazole‑2‑carbonyl}-AGESLYE-NH2 [MAI-455] — within 1.5-fold, 860 ± 30 nM
- {morpholine‑4‑carbonyl}-AGESLYE-NH2 [MAI-451] — 3.7-fold lower, 270 ± 5 nM
- B2 — 12-fold lower, 80 ± 3 nM
- {furan‑2‑carbonyl}-AGESLY[Bpa]-NH2 [MAI-454] — 3.6-fold lower, 280 ± 10 nM
- B3 — within error, 940 ± 30 nM
- {oxazole‑5‑carbonyl}-AGESLYE-NH2 [MAI-460] — 1.8-fold lower, 550 ± 9 nM
- Bz-AGESLYE-NH2 [MAI-467] — 3.1-fold lower, 320 ± 7 nM
- {2‑chloropyrimidine‑4‑carbonyl}-AGESLYE-NH2 [MAI-459] — within 1.5-fold, 840 ± 30 nM

Target: T3, MAI-516 (N-terminal 4-methoxy-phenyl group (R^1))
T3 construct: peptidomimetic; the text names its residues A181, G182, E183, S184, L185 and Y186 (Asef numbering); source: synthetic peptide (Supplementary Methods)
Test: ITC; MicroCal ITC200, 30 °C; 50 mM HEPES pH 7.5, 300 mM NaCl, 1 mM EDTA; APC in the cell at 10–20 μM, peptide injected at 100–200 μM; single-site model
Settings: both partners purified

B4 was tested, and the Kd was 860 nM.

Target: T1, APC (303-739)
Test: fluorescence polarisation; competition with tracer 1: APC (303-739) 1.0 μM and tracer 1 20 nM (Table 2), serial dilution of peptide
Settings: both partners purified

Point of comparison: B2, IC50 630 ± 200 nM. Against it:
- {2‑(methylthio)pyrimidine‑4‑carbonyl}-AGESLYE-NH2 [MAI-456] — within error, 570 ± 120 nM
- B1 — within error, 590 ± 200 nM
- {benzofuran‑2‑carbonyl}-AGESLYE-NH2 [MAI-453] — within error, 460 ± 140 nM
- {pyrimidine‑4‑carbonyl}-AGESLYE-NH2 [MAI-464] — within error, 740 ± 160 nM
- Cbz-AGES[hLeu]YE-NH2 [MAI-426] — within error, 840 ± 190 nM
- {oxazole‑2‑carbonyl}-AGESLYE-NH2 [MAI-455] — within error, 530 ± 120 nM
- Bz-AGESLY[dE]-NH2 [MAI-465] — within error, 750 ± 150 nM
- {morpholine‑4‑carbonyl}-AGESLYE-NH2 [MAI-451] — within error, 390 ± 120 nM
- {furan‑2‑carbonyl}-AGESLY[Bpa]-NH2 [MAI-454] — within error, 480 ± 150 nM
- B3 — within error, 810 ± 200 nM
- {oxazole‑5‑carbonyl}-AGESLYE-NH2 [MAI-460] — within error, 620 ± 190 nM
- Bz-AGESLYE-NH2 [MAI-467] — within error, 820 ± 300 nM
- {2‑chloropyrimidine‑4‑carbonyl}-AGESLYE-NH2 [MAI-459] — within error, 600 ± 120 nM

Target: T1, APC (303-739)
Test: fluorescence polarisation; direct binding: tracer fixed at 20 nM, range of concentrations of APC (303-739), read after 1.5 h; EC50 by nonlinear regression
Settings: both partners purified

Point of comparison: B10, EC50 53 nM. Against it:
- B5 — within 1.5-fold, 41 nM
- B6 — within 1.5-fold, 51 nM
- B7 — within 1.5-fold, 47 nM
- B8 — within 1.5-fold, 52 nM
- B9 — within 1.5-fold, 50 nM
- B11 — within 1.5-fold, 48 nM

Target: T1, APC (303-739)
Test: ITC; APC protein in the cell at 10-20 μM, peptide injected at 100-200 μM; 50 mM HEPES pH 7.5, 300 mM NaCl, 1 mM EDTA; 30 °C; single-site model
Settings: both partners purified

For B12, the “stoichiometry N” value was 1.6.

Target: T2, APC (303–739)
Test: ITC; MicroCal ITC200, 30 °C; 50 mM HEPES pH 7.5, 300 mM NaCl, 1 mM EDTA; APC in the cell at 10–20 μM, peptide injected at 100–200 μM; single-site model
Settings: both partners purified

Point of comparison: B13, Kd 78 nM. Against it:
- B14 — 7.4-fold higher, 580 nM

Target: T2, APC (303–739)
Test: fluorescence polarisation; direct binding: tracer fixed at 20 nM, a range of concentrations of APC (303–739), read after 1.5 h; EC50 by nonlinear regression
Settings: both partners purified

Point of comparison: B16, EC50 68 nM. Against it:
- B15 — 1.7-fold lower, 40 nM
- B13 — 4.2-fold lower, 16 nM
- B14 — 7.9-fold higher, 540 nM
- B17 — within 1.5-fold, 46 nM
- B18 — within 1.5-fold, 48 nM
- B19 — 2.6-fold higher, 180 nM
